The values that follow come from patent US6861578B1, “Method for plant protection against insects or nematodes by transformation with a nucleic acid encoding equistatin” (Plant Research International B.V., priority 1997, dated 2005).

Like-named read-outs stand apart in the source and are kept apart here.

Data set [1] concerns cysteine proteases. Conditions: Yamashita and Konagaya (1996); cited from earlier work.
In data set [2] the test system is T1, equistatin, isolated from sea anemone Actinia equina.
T1 sequence: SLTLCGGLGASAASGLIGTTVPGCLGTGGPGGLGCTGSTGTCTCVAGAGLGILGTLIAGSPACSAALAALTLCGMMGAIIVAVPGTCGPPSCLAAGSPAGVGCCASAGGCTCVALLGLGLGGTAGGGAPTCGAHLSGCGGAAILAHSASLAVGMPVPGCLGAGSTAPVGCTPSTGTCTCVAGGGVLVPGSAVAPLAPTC

Data set [3] concerns the target T2, cathepsin D (Homo sapiens, UniProt P07339). As to the kind of experiment: steady state inhibition of cathepsin D hydrolysis of chromophoric substrate.
For data set [4], the target named is T2, cathepsin D. Described as above. This is another data set of the same source.
Data set [5] has as its target T3, papain (UniProt P00784 134-345).
T3 construct: also called cysteine proteinase, papain
T3 sequence (looked up): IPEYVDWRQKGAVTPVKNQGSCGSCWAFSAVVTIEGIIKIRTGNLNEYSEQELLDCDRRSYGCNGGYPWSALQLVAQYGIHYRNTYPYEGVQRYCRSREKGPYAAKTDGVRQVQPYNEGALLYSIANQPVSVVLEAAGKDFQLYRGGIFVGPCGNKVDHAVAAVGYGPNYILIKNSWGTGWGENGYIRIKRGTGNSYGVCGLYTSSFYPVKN
The data set is described as follows: continuous rate enzyme inhibition assay with papain.

For data set [6], the target named is western corn rootworm (Diabrotica virgifera) third instar larval gut proteases. As to the kind of experiment: cell-based or functional assay.
Data set [7] has as its target Colorado potato beetle larval gut proteases (total gut extract, pH 3). As to the kind of experiment: cell-based or functional assay.
Data set [8] addresses T3, papain. As to the kind of experiment: papain titration in microtiter plate, Z-Phe-Arg-pNA substrate. As for the experimental part: In a microtiterplate 20 µl papain solution (a fresh solution of 1 mg/ml (Sigma) in MES buffer titrated with E-64 to determine the active fraction, usually 17%) is combined with 0–80 µl of known protein concentration. MES buffer (50 mM MES, pH 6.5; 0.6 mg/ml L-cysteine; 1 mg/ml BSA fraction V) is added to a final volume of 150 µl. The mixture is incubated for 30 min at room temperature and subsequently 50 µl of substrate solution (60 µl of 15 mg/ml Z-Phe-Arg-pNA dissolved in methanol is diluted in 940 µl MES buffer before use). The plate is immediately placed in the nicrotiterplate reader and measured at 405 nm. Readings up to an OD600 of 0.3 are linear. Rates of change are used to determine the activity with increasing amounts of inhibitor. Results are graphically represented and at stoichiometric concentrations the amount of dissociated complex is determined to determine the apparent equilibrium dissociation constant (Ki). […] The apparent equilibrium dissociation constant for papain was estimated to be 0.6 nM in agreement with the data published for the purified protein (Lenarcic et al. (1997) J. Biol. Chem. 272: 13899–13903.

In data set [9] the target is potato protease inhibitor-insensitive cysteine proteases of Colorado potato beetle (Leptinotarsa decemlineata) larval gut extracts. As to the kind of experiment: cell-based or functional assay.
The target of data set [10] is proteases in extracts of adult leafminer flies (Liriomyza trifolii). As to the kind of experiment: cell-based or functional assay.
The target in data set [11] is proteases in extracts of adult western flower thrips (Frankliniella occidentalis). As to the kind of experiment: cell-based or functional assay.
The target of data set [12] is T3, papain. As to the kind of experiment: continuous rate enzyme inhibition assay with papain; Ki = kd/ka.
Data set [13] deals with T2, cathepsin D. The data set is described as follows: active site titration of cathepsin D with equistatin (FIG. 12).
The subject of data set [14] is Colorado potato beetle larval gut extracts (potato protease inhibitor-insensitive cysteine proteases). The data set is described as follows: General proteolytic activity of Colorado potato beetle larval gut extracts, azocasein. In kind it is biochemical, Leptinotarsa decemlineata. An excerpt:
(§1) Guts of final instar Colorado potato beetle larvae reared on methyl jasmonate induced plants were isolated and extracted essentially as described (Bolter and Jongsma, J. Insect Physiol. 41: 1071-1078). In these gut extracts the proteases that are sensitive to the protease inhibitors of potato are already complexed. The residual protease activity is composed of potato protease-inhibitor-insensitive proteases which were induced in response to the methyl jasmonate induced potato inhibitors. These proteases are the proteases that render the beetle larvae insensitive to protease inhibitor defense of the potato plant. Wle tested a broad range of different cysteisie protease inhibitors for activity specifically against these induced potato protease inhibitor-insensitive cysteine protesses. Nearly all of these inhibitors were purified at the Jozef Stefan Institute in Slovenia. Testing their potential against Colorado potato beetle was done using both general protein substrates (azocasein, table 2) as well as specific synthetic substrates (L-Arg-pNA, table 3; pGlu-Phe-Leu-pNA, table 4; Z-Phe-Arg-pNA, table 5; Z-Arg-Arg-pNA, table 6). In specific cases inhibitors were tested at two concentrations, eauimolar and in excess to the protease, in order to obtain an indication of the tightness of the complex. […] Importantly, this class of inhibitors was capable of inhibiting nearly all general cysteine protease activity. The equistatin peptide molecule and a functional derivative thereof were not very active against the aminopeptidase-like cysteine protease activity. […] The best combination of inhibitors for full toxicity against the Colorado potato beetle would therefore be a combination of equistatin or p41 invariant chain fragment and stefin-like inhibitors.

For data set [15], the system named is amino-peptidase activity of Colorado potato beetle larval gut extracts. As to the kind of experiment: Amino-peptidase activity of Colorado potato beetle gut extract, L-Arg-pNA. In kind it is biochemical, Leptinotarsa decemlineata.
From the text: as §1

The subject of data set [16] is tri-peptidil-peptidase and endoprotease activity of Colorado potato beetle larval gut extracts. As to the kind of experiment: Tri-peptidil-peptidase and endoprotease activity of Colorado potato beetle gut extract, pGlu-Phe-Leu-pNA. In kind it is biochemical, Leptinotarsa decemlineata.
From the text: as §1

Data set [17] relates to endoprotease activity of Colorado potato beetle larval gut extracts. The data set is described as follows: Narrow spectrum endoprotease activity of Colorado potato beetle gut extract, Z-Arg-Arg-pNA. In kind it is biochemical, Leptinotarsa decemlineata. Conditions: excess inhibitor.
From the text: as §1

Data set [18] shares this test system. The data set is described as follows: Broad spectrum endoprotease activity of Colorado potato beetle gut extract, Z-Phe-Arg-pNA. The format is biochemical, Leptinotarsa decemlineata.
From the text: as §1

“thyroglobulin: protein containing type I repeated thyroglobulin domains [reference compound]”: the “inhibition of cysteine proteases” value in data set [1] was “do not inhibit”.

β-trypsin: the “limited proteolysis, reverse-phase HPLC and N-terminal sequencing” value in data set [2] was “equistatin was found to be a good substrate for trypsin”.

B1: combined second and third domain of equistatin (eq d-2,3) (protein)
chain: AALTLCGMMGAIIVAVPGTCGPPSCLAAGSPAGVGCCASAGGCTCVALLGLGLGGTAGGGAPTCGAHLSGCGGAAILAHSASLAVGMPVPGCLGAGSTAPVGCTPSTGTCTCVAGGGVLVPGSAVAPLAPTC
A word on the Ki: it is the dissociation constant of the complex between target and ligand, obtained from inhibition or displacement. For B1, the Ki is 0.0004 µM in data set [3], over 0.0006 µM in [4] and over 1 µM in [5].

B2: recombinant equistatin (expressed in E. coli from pB3-equistatin, purified on papain-sepharose) (other, not shown: large carriers; small tags and cut ends)
chain: SLTKCQQLQASANSGLIGTYVPQCKETGEFEEKQCWGSTGYCWCVDEDGKEILGTKIRGSPDCSRRKAALTLCQMMQAIIVNVPGWCGPPSCKADGSFDEVQCCASNGECYCVDKKGKELEGTRQQGRPTCERHLSECEEARIKAHSNSLRVEMFVPECLEDGSYNPVQCWPSTGYCWCVDEGGVKVPGSDVRFKRPTC
notes: also called EI
In data set [6], B2 came in with a residual protease activity (FITC-hemoglobin), pH 3 (% residual activity) of 2 and a residual protease activity (FITC-hemoglobin), pH 6.5 (% residual activity) of 7. Moreover, in data set [7], the inhibition of total protease activity (FITC-hemoglobin), pH 3 was determined as 62 % inhibition and the residual protease activity (FITC-hemoglobin), pH 3 (% residual activity) came out at 36. This molecule gave an inhibition constant Ki in data set [8] of 0.0006 µM.

B3: equistatin, isolated from sea anemone Actinia equina (protein)
chain: SLTLCGGLGASAASGLIGTTVPGCLGTGGPGGLGCTGSTGTCTCVAGAGLGILGTLIAGSPACSAALAALTLCGMMGAIIVAVPGTCGPPSCLAAGSPAGVGCCASAGGCTCVALLGLGLGGTAGGGAPTCGAHLSGCGGAAILAHSASLAVGMPVPGCLGAGSTAPVGCTPSTGTCTCVAGGGVLVPGSAVAPLAPTC
The koff is a measure of how fast the partners let go of each other. By kon is commonly meant the second-order rate constant of association. Read a high kon as fast association. Regarding B3, in data set [9], the residual amino-peptidase activity (L-Arg-pNA), equimolar inhibitor (% of residual activity) is 85; the residual amino-peptidase activity (L-Arg-pNA), excess inhibitor (% of residual activity) was 75; the residual broad spectrum endoprotease activity (Z-Phe-Arg-pNA), equimolar inhibitor (% of residual activity) is 30; the residual broad spectrum endoprotease activity (Z-Phe-Arg-pNA), excess inhibitor (% of residual activity) stood at 20. In [9], the residual general proteolytic activity (azocasein) in excess of inhibitor (% residual activity) was found to be 10; the residual narrow spectrum endoprotease activity (Z-Arg-Arg-pNA), equimolar inhibitor (% of residual activity) was determined as 20; the residual narrow spectrum endoprotease activity (Z-Arg-Arg-pNA), excess inhibitor (% of residual activity) was -5; the residual tri-peptidil-peptidase and endoprotease activity (pGlu-Phe-Leu-pNA), equimolar inhibitor (% of residual activity) was found to be 10. For the same molecule, in [9], the residual tri-peptidil-peptidase and endoprotease activity (pGlu-Phe-Leu-pNA), excess inhibitor (% of residual activity) is -5. In addition, the residual protease activity (FITC-hemoglobin), pH 3.5 (% residual activity) in data set [10] is 24. This molecule also yielded a residual protease activity (FITC-hemoglobin), pH 3.5 (% residual activity) in data set [11] of 5. The Ki in data set [12] was 0.00057 µM. Besides, the binding stoichiometry (mol equistatin per mol cathepsin D) in data set [13] came to 1. The molecule also displayed a Ki in data set [3] of 0.0003 µM. In [5], the koff was 0.0065 s⁻¹ and the kon is 1.2e+07 M⁻¹ s⁻¹.

B4: entactin: protein with domains homologous to type I repeated thyroglobulin domains (protein, UniProt P14543 29-1247, looked up)
Nidogen-1: LSRQELFPFGPGQGDLELEDGDDFVSPALELSGALRFYDRSDIDAVYVTTNGIIATSEPPAKESHPGLFPPTFGAVAPFLADLDTTDGLGKVYYREDLSPSITQRAAECVHRGFPEISFQPSSAVVVTWESVAPYQGPSRDPDQKGKRNTFQAVLASSDSSSYAIFLYPEDGLQFHTTFSKKENNQVPAVVAFSQGSVGFLWKSNGAYNIFANDRESVENLAKSSNSGQQGVWVFEIGSPATTNGVVPADVILGTEDGAEYDDEDEDYDLATTRLGLEDVGTTPFSYKALRRGGADTYSVPSVLSPRRAATERPLGPPTERTRSFQLAVETFHQQHPQVIDVDEVEETGVVFSYNTDSRQTCANNRHQCSVHAECRDYATGFCCSCVAGYTGNGRQCVAEGSPQRVNGKVKGRIFVGSSQVPIVFENTDLHSYVVMNHGRSYTAISTIPETVGYSLLPLAPVGGIIGWMFAVEQDGFKNGFSITGGEFTRQAEVTFVGHPGNLVIKQRFSGIDEHGHLTIDTELEGRVPQIPFGSSVHIEPYTELYHYSTSVITSSSTREYTVTEPERDGASPSRIYTYQWRQTITFQECVHDDSRPALPSTQQLSVDSVFVLYNQEEKILRYALSNSIGPVREGSPDALQNPCYIGTHGCDTNAACRPGPRTQFTCECSIGFRGDGRTCYDIDECSEQPSVCGSHTICNNHPGTFRCECVEGYQFSDEGTCVAVVDQRPINYCETGLHNCDIPQRAQCIYTGGSSYTCSCLPGFSGDGQACQDVDECQPSRCHPDAFCYNTPGSFTCQCKPGYQGDGFRCVPGEVEKTRCQHEREHILGAAGATDPQRPIPPGLFVPECDAHGHYAPTQCHGSTGYCWCVDRDGREVEGTRTRPGMTPPCLSTVAPPIHQGPAVPTAVIPLPPGTHLLFAQTGKIERLPLEGNTMRKTEAKAFLHVPAKVIIGLAFDCVDKMVYWTDITEPSIGRASLHGGEPTTIIRQDLGSPEGIAVDHLGRNIFWTDSNLDRIEVAKLDGTQRRVLFETDLVNPRGIVTDSVRGNLYWTDWNRDNPKIETSYMDGTNRRILVQDDLGLPNGLTFDAFSSQLCWVDAGTNRAECLNPSQPSRRKALEGLQYPFAVTSYGKNLYFTDWKMNSVVALDLAISKETDAFQPHKQTRLYGITTALSQCPQGHNYCSVNNGGCTHLCLATPGSRTCRCPDNTLGVDCIEQK
As to B4, the “inhibition of cysteine proteases” value in [1] is given as “do not inhibit”.

B5: first domain of equistatin (eq d-1) (protein)
chain: SLTLCGGLGASAASGLIGTTVPGCLGTGGPGGLGCTGSTGTCTCVAGAGLGILGTLIAGSPACSAAL
B5: the Ki is 0.00061 µM in [12], over 1 µM in data set [3] and 1000 µM in data set [4]. In data set [5], this molecule registered a koff of 0.0011 s⁻¹. The molecule further showed a kon in [5] of 1.8e+06 M⁻¹ s⁻¹.

B6: human stefin A: Type I cystatin (protein, UniProt P01040 1-98, looked up)
Cystatin-A: MIPGGLSEAKPATPEIQEIVDKVKPQLEEKTNETYGKLEAVQYKTQVVAGTNYYIKVRAGDNKYMHLKVFKSLPGQNEDLVLTGYQVDKNKDDELTGF
B6: the “Residual activity in excess of inhibitor” value in data set [14] is reported as 90%. Also, the “% of residual activity, equimolar” value in [15] (equimolar) is 60%; in data set [16] (equimolar), 95%; in data set [18] (equimolar) it was 95%. The “% of residual activity, excess inhibitor” value in data set [15] (excess inhibitor) was 10%; in data set [16] (excess inhibitor) it was 90%; in data set [17] it was 90%; in data set [18] (excess inhibitor), 80%.
